From US20220378931A1 (Eli Lilly, published 2022)
Residue numbers refer to the chain shown, from its start.

B1: INS Analog 29 (other)
chain: FVSQHLCGSHLVEALRLVCGERGFHYTPKTGGGGGGGIVEQCCHSICSLYQLENYCGGGGGQGGGGQGGGGQGGGGQGGGGQEVQLLESGGGLVQPGGSLRLSCAASGRYIDETAVAWFRQAPGKEREFVAGIGGGVDITYYADSVKGRFTISRDNSKNTLYLQMNSLRPEDTAVYYCAARPGRPLITSKVADLYPYWGQGTLVTVSSPP
notes: single-chain insulin B-L2-A-L1-VHH fusion; also called Ex. 29
B2: INS Analog 23 (other)
chain: B1 chain with R16H, Y50E
notes: single-chain insulin B-L2-A-L1-VHH fusion; also called Ex. 23
B3: INS Analog 27 (other)
chain: B1 chain with H25F
notes: single-chain insulin B-L2-A-L1-VHH fusion; also called Ex. 27
B4: INS Analog 24 (other)
chain: FVSQHLCGSHLVEALHLVCGERGFHYTPKTGGGGGGGIVEQCCHSICSLEQLENYCGPGPQPGPQPGPQPGPQPGPQPGPQPGPQPGPQEVQLLESGGGLVQPGGSLRLSCAASGRYIDETAVAWFRQAPGKEREFVAGIGGGVDITYYADSVKGRFTISRDNSKNTLYLQMNSLRPEDTAVYYCAARPGRPLITSKVADLYPYWGQGTLVTVSSPP
notes: single-chain insulin B-L2-A-L1-VHH fusion; also called Ex. 24
B5: INS Analog 28 (other)
chain: B4 chain with H16R, H25F, E50Y
notes: single-chain insulin B-L2-A-L1-VHH fusion; also called Ex. 28
B6: INS Analog 13 (other)
chain: B4 chain with Q61A, Q65A, Q69A, Q73A, Q77A, Q81A, Q85A, Q89A
notes: single-chain insulin B-L2-A-L1-VHH fusion; also called Ex. 13
B7: INS Analog 14 (other)
chain: FVSQHLCGSHLVEALRLVCGERGFFYTPKTGGGGGGGIVEQCCTSICSLYQLENYCGPGPAPGPAPGPAPGPAPGPAPGPAPGPAPGPAEVQLLESGGGLVQPGGSLRLSCAASGRYIDETAVAWFRQAPGKEREFVAGIGGGVDITYYADSVKGRFTISRDNSKNTLYLQMNSLRPEDTAVYYCAARPGRPLITSKVADLYPYWGQGTLVTVSSPP
notes: single-chain insulin B-L2-A-L1-VHH fusion; also called Ex. 14
B8: INS Analog 18 (other)
chain: B7 chain with F25H, T44H
notes: single-chain insulin B-L2-A-L1-VHH fusion; L1 is (PGPA)8; also called Ex. 18

Target: T1, rabbit serum albumin (rabbit, UniProt P49065 25-608)
T1 construct: bought protein, amine-coupled to a CM5 chip; also called Rabbit SA
Test: SPR (Biacore 8K), albumin immobilised, 25 C
Method: (§1) Immobilization of serum albumin to a Series S Sensor Chip CM5 surface is performed according to the manufacturer's instructions (Amine Coupling Kit BR-1000-50). Briefly, carboxyl groups on the sensor chip surfaces (flow cell 1 and 2) are activated by injecting 70 μL of a mixture containing 75 mg/ml EDC and 11.5 mg/ml NHS at 10 μL/min. Human, cynomolgus monkey, mouse, rat, pig, dog, cow and rabbit serum albumin are diluted in 10 mM NaOAc pH 4.0 (BR-1003-49) at 1, 1, 3, 1, 1, 1, 1 and 1 μg/mL and then injected over the activated chip surfaces (flow cell 2, […]) at 10 μL/min for 90 sec (human, mouse, rat, pig and cow serum albumin are obtained from Sigma Aldrich (St. Louis, Mo.); cynomolgus monkey serum albumin is obtained from Holzel Diagnostika (Cologne, Germany); dog serum albumin is obtained from Molecular Innovations (Novi, Mich.); and rabbit serum albumin is obtained from Fitzgerald Industries International (Acton, Mass.)). […] Excess reactive groups on the surfaces (flow cell 1 and 2) are deactivated by injecting 70 μL of 1 M ETA HCl—NaOH pH 8.5 at 10 μL/min.
(§2) 150 μL of sample is individually injecting sequentially across the immobilized serum albumins surface and then dissociates for 600 sec at 50 μL/min flow rate at 25° C. The surface is regenerated by injecting 10 mM glycine-HCl pH 1.5 (BR-1003-54) at 50 μL/min for 100 sec. The resulting sensorgrams are analyzed using Biacore 8K Insight Evaluation Software (version 2.0.15.12933) 1:1 binding kinetics or steady-state affinity model fitting to calculate the binding kinetic parameter association rate (ka), dissociation rate (kd), and equilibrium dissociation constant (KD)

Binder	binding result
B1	no binding (tested: up to 1000 nM)
B2	no binding (tested: up to 1000 nM)
B3	no binding (tested: up to 1000 nM)
B4	no binding (tested: up to 1000 nM)
B5	no binding (tested: up to 1000 nM)

Target: T2, human insulin receptor isoform B with C-terminal C9 tag (human, UniProt P06213 28-1382)
T2 construct: membranes of stably transfected HEK293 cells; also called hIR-B; human IR-B
Test: 125I-insulin competition SPA, hIR-B membranes, 0.001% NP-40
Method: (§3) The assays are performed with a SPA method using polyvinyltoluene (PVT) wheat germ agglutinin-coupled SPA beads (Perkin Elmer). Assay buffer contains 50 mM Tris-HCl, pH 7.5, 150 mM NaCl and either A) 0.1% w/v fatty-acid free BSA; B) 0.1% w/v fatty-acid free human serum albumin (HSA); C) 0.1% w/v rat serum albumin (RSA); or D) 0.001% Nonidet P-40 Substitute (NP-40, Roche Diagnostics). Ten-point concentration response curves using three-fold serial dilutions of test samples or controls are prepared in Assay Buffer using a Freedom/Evo robot (Tecan).
(§4) Percent specific inhibition (y-axis) is plotted versus the log concentration of compound (x-axis). […] Reported Ki values are shown as the geometric mean with the standard error (Delta Method Standard Error) and the number of independent replicate determinations used to calculate the geometric mean indicated by n.

Binder	Ki
B1	0.0625 µM
B6	0.0392 µM
B7	0.234 µM
B8	0.134 µM

Target: T3, cow serum albumin (cow, UniProt P02769 25-607)
T3 construct: bought protein, amine-coupled to a CM5 chip; also called Cow SA; Bovine SA
Test: SPR (Biacore 8K), albumin immobilised, 25 C, steady-state affinity
Method: as §1, §2

Binder	Kd
B1	0.38 µM
B2	0.59 µM
B3	0.39 µM
B4	0.43 µM
B5	0.4 µM

Target: T4, human insulin receptor isoform A with C-terminal C9 tag (human, UniProt P06213 28-1382)
T4 construct: membranes of stably transfected HEK293 cells; also called hIR-A; human IR-A
Test: 125I-insulin competition SPA, hIR-A membranes, 0.001% NP-40
Method: as §3, §4

Binder	Ki
B1	0.034 µM
B2	0.0189 µM
B3	0.0505 µM
B4	0.0218 µM
B5	0.0327 µM
B6	0.0231 µM
B7	0.163 µM
B8	0.0895 µM

Target: T4, human insulin receptor isoform A with …
Test: 125I-insulin competition SPA, hIR-A membranes, 0.1% HSA
Method: as §3, §4

Binder	Ki
B1	0.0282 µM
B6	0.0346 µM
B7	0.124 µM
B8	0.518 µM

Target: T4, human insulin receptor isoform A with …
Test: 125I-insulin competition SPA, hIR-A membranes, 0.1% BSA
Method: as §3, §4

Binder	Ki
B1	0.179 µM
B2	0.0551 µM
B3	0.103 µM
B4	0.0568 µM
B5	0.071 µM
B6	0.0603 µM
B7	0.282 µM
B8	0.204 µM

Target: T2, human insulin receptor isoform B with …
Test: 125I-insulin competition SPA, hIR-B membranes, 0.1% BSA
Method: as §3, §4

Binder	Ki
B1	0.124 µM
B6	0.131 µM
B7	0.378 µM
B8	0.299 µM

Target: T2, human insulin receptor isoform B with …
Test: 125I-insulin competition SPA, hIR-B membranes, 0.1% HSA
Method: as §3, §4

Binder	Ki
B1	0.0381 µM
B6	0.089 µM
B7	0.447 µM
B8	0.239 µM

Target: T5, cynomolgus monkey serum albumin (cynomolgus monkey, UniProt A2V9Z4 25-608)
T5 construct: bought protein, amine-coupled to a CM5 chip; also called Cyno SA
Test: SPR (Biacore 8K), albumin immobilised, 25 C, 1:1 kinetics
Method: as §1, §2

Binder	Kd	koff	kon
B1	0.0044 µM	0.00078 s⁻¹	180000 M⁻¹ s⁻¹
B2	0.0068 µM	0.00084 s⁻¹	120000 M⁻¹ s⁻¹
B3	0.0047 µM	0.00078 s⁻¹	170000 M⁻¹ s⁻¹
B4	0.0055 µM	0.00075 s⁻¹	130000 M⁻¹ s⁻¹
B5	0.0041 µM	0.00067 s⁻¹	170000 M⁻¹ s⁻¹

Target: T6, mouse serum albumin (mouse, UniProt P07724 25-608)
T6 construct: bought protein, amine-coupled to a CM5 chip; also called Mouse SA
Test: as above
Method: as §1, §2

Binder	Kd	koff	kon
B1	0.048 µM	0.0087 s⁻¹	180000 M⁻¹ s⁻¹
B2	0.076 µM	0.0093 s⁻¹	120000 M⁻¹ s⁻¹
B3	0.045 µM	0.0079 s⁻¹	170000 M⁻¹ s⁻¹
B4	0.049 µM	0.0073 s⁻¹	150000 M⁻¹ s⁻¹
B5	0.037 µM	0.006 s⁻¹	160000 M⁻¹ s⁻¹

Target: T7, rat serum albumin (rat, UniProt P02770 25-608)
T7 construct: bought protein, amine-coupled to a CM5 chip; also called Rat SA; RSA
Test: as above
Method: as §1, §2

Binder	Kd	koff	kon
B1	0.032 µM	0.0065 s⁻¹	200000 M⁻¹ s⁻¹
B2	0.053 µM	0.0065 s⁻¹	120000 M⁻¹ s⁻¹
B3	0.032 µM	0.0061 s⁻¹	190000 M⁻¹ s⁻¹
B4	0.04 µM	0.0057 s⁻¹	140000 M⁻¹ s⁻¹
B5	0.026 µM	0.0048 s⁻¹	180000 M⁻¹ s⁻¹

Target: T8, pig serum albumin (pig, UniProt P08835 25-607)
T8 construct: bought protein, amine-coupled to a CM5 chip; also called Pig SA
Test: as above
Method: as §1, §2

Binder	Kd	koff	kon
B1	0.086 µM	0.013 s⁻¹	150000 M⁻¹ s⁻¹
B2	0.13 µM	0.012 s⁻¹	95000 M⁻¹ s⁻¹
B3	0.09 µM	0.01 s⁻¹	120000 M⁻¹ s⁻¹
B4	0.1 µM	0.011 s⁻¹	100000 M⁻¹ s⁻¹
B5	0.075 µM	0.0084 s⁻¹	110000 M⁻¹ s⁻¹

Target: T9, dog serum albumin (dog, UniProt P49822 25-608)
T9 construct: bought protein, amine-coupled to a CM5 chip; also called Dog SA
Test: as above
Method: as §1, §2

Binder	Kd	koff	kon
B1	0.016 µM	0.0032 s⁻¹	190000 M⁻¹ s⁻¹
B2	0.023 µM	0.0033 s⁻¹	140000 M⁻¹ s⁻¹
B3	0.017 µM	0.003 s⁻¹	180000 M⁻¹ s⁻¹
B4	0.016 µM	0.0024 s⁻¹	150000 M⁻¹ s⁻¹
B5	0.012 µM	0.0021 s⁻¹	170000 M⁻¹ s⁻¹

Target: T10, human serum albumin (human, UniProt P02768 25-609)
T10 construct: bought protein, amine-coupled to a CM5 chip; also called Human SA; HSA
Test: as above
Method: as §1, §2

Binder	Kd	koff	kon
B1	0.00074 µM	0.00013 s⁻¹	180000 M⁻¹ s⁻¹
B2	0.00073 µM	9e-05 s⁻¹	120000 M⁻¹ s⁻¹
B3	0.00075 µM	0.00013 s⁻¹	170000 M⁻¹ s⁻¹
B4	0.00091 µM	0.00012 s⁻¹	140000 M⁻¹ s⁻¹
B5	0.00073 µM	0.00012 s⁻¹	160000 M⁻¹ s⁻¹
